# Measured values reported in the DeepSol protein solubility set.
# Assay: soluble on expression in E. coli; label from the status in PepcDB or PDB records
row,Sequence,soluble on expression in E. coli
1,MQKRVKEGPFTTEWIDLYLEEAVRKGIKEVGIVDHLYRFHEAKGYYEKYVDISDSKLGRIQKEWLDQVKVVSLYDFTKAIEEAKERWGKRGVTLKLGIEADYFIGCEGELKELLALGDFDYVIGSVHFLNGWGFDNPDTKEYFEVHDLRALYDMFFKTVESAIRTELFDIIAHLDNIKVFNYRLDENEQLSYYEEIACALVETNTATEINAGLYYRYPVREMCPSPLYLQVLAKYGVPITISSDAHYPNDLGNYVQENIQTLRAHGVTQVATFTKRARVMRSLEEEVTNSK,not soluble
2,MGSDKIHHHHHHMLFLSGLLGVSAQRVALKNNLLYDATLTPNLALEIGVGPKMTVDLLGGVNPFKISDDHYWKHWLAQPELRYWFCEKFNGVCIGLHGHVGQMNIAGISVPPVGSIHPKSDFDDARYHRYQGWFYGGGISIGRQWILGNHWNLEASIGGGYIHFDYDKYQCVECGKKVGVDKKADYFGLTRATLSLIYLFK,not soluble
3,MGSDKIHHHHHHMEALLQLKGIDKAFPGVKALSGAALNVYPGRVMALVGENGAGKSTMMKVLTGIYTRDAGTLLWLGKETTFTGPKSSQEAGIGIIHQELNLIPQLTIAENIFLGREFVNRFGKIDWKTMYAEADKLLAKLNLRFKSDKLVGDLSIGDQQMVEIAKVLSFESKVIIMDEPTDALTDTETESLFRVIRELKSQGRGIVYISHRMKEIFEICDDVTVFRDGQFIAEREVASLTEDSLIEMMVGRKLEDQYPHLDKAPGDIRLKVDNLCGPGVNDVSFTLRKGEILGVSGLMGAGRTELMKVLYGALPRTSGYVTLDGHEVVTRSPQDGLANGIVYISEDRKRDGLVLGMSVKENMSLTALRYFSRAGGSLKHADEQQAVSDFIRLFNVKTPSMEQAIGLLSGGNQQKVAIARGLMTRPKVLILDEPTRGVDVGAKKEIYQLINQFKADGLSIILVSSEMPEVLGMSDRIIVMHEGHLSGEFTREQATQEVLMAAAVGKLNRVNQE,not soluble
4,MSLRLTKGSVKHQAKTEAELKTVKTQLDTQKAQIEKHFAESAELFKTLINDYQKLYRHYATSSNNLLGEKDQKGLFTQQLITATDKSQNEQPRDYSEGASGLFKENKEEEGHHHHHH,soluble
5,MYDSAPSDPVPFARLRFRDLQLLREIAAARSLTAVAERRGLTQPALSRTLRDIEAELGAQVFSRERGARLAPTAVGRHILARVDLLMADAGALHSELRAFEEGRGAHLRLGVIPFVSNALMQEVLKTLTGEPLRMSVSTFEGATDQLVLALRRQELDIVIGRLSADAGADTLAQEGLFSQTASIVMSEALYERRASLTLASLHGHPWVLPPASSPTRMAFVEAFVSRNAVAPVARIETTSARLVHSAISSNMASLGLLPLDIGQELERWGGVRCKAFPVPFRMPTVGLIVLAERRARAMNRVVRDVLHRCIARVAAYA,not soluble
6,MNITPLTSAAGKGSSAQGTDKISIPNSTRMINAASIKWLNKVRSAISDHIRTSIEKGKLFELASLGSNMFGVPALSARPSTLQPVLAFEADPNHDLNLVRVYMQDSAGKLTPWDPTPNAVTTTSNPSEPDAQSDTASSSLPRRPPAGSVLSLLGIALDHAQRHSPRADRSAKGRPGREERNGARFNAKQTKPTEAEAYGDHQTPNPDLHRQKETAQRVAESINSMREQQNGMQRAEGLLRAKEALQAREAARKQLLDVLEAIQAGREDSTDKKISATEKNATGINYQ,not soluble
7,MAVTQSPRNKVAVTGGKVTLSCNQTNNHNNMYWYRQDTGHGLRLIHYSYGAGSTEKGDIPDGYKASRPSQENFSLILELATPSQTSVYFCASGDLGQTNERLFFGHGTKLSVLGSADDAKKDAAKKDGQVRQSPQSLTVWEGETAILNCSYENSAFDYFPWYQQFPGEGPALLISILSVSDKKEDGRFTIFFNKREKKLSLHIADSQPGDSATYFCAAIDTNAYKVIFGKGTHLHVLP,soluble
8,MGFLKILRKQRAREREMRILILGLDNAGKTTLMKKFLDEPTDTIEPTLGFDIKTVHFKDFQLNLWDVGGQKSLRSYWKNYFESTDALIWVVDSSDRERLLQCSEELKKLLGEERLAGASLLVLANKSDLPGAIDVNSIAQVLDLHSIKSHHWKIFSCCALSGDRLVQAMTWLCDDVGSRLFILD,not soluble
9,MDNPVKLDTPVSGWRAGDGSAANYRQVVNYPASSVNVAADQATTARIRGAIESQPKDRPATLVVNGVSMPLKVDADGSFDRPFAFPSGSNSVEVRNAAGQSRRVQFYHGGGGGEVPAKLRVLLSWDSDNTDLDLHLVTPDGDHVWYGNRSLANGATLDVDVTTGYGPEIIATPTPQKGPYLVYVNYFGGGYGSSEDGAEQAAQDLTTARITLVTEEGTPNEKQETFLVPMRKPGELTLVKRFSYPLEHHHHHH,soluble
10,MSAAPLVGYSSSGSEDESEDGMRTRPGDGSHRRGQSPLPRQRFPVPDSVLNMFPGTEEGPEDDSTKHGGRVRTFPHERGNWATHVYVPYEAKEEFLDLLDVLLPHAQTYVPRLVRMKVFHLSLSQSVVLRHHWILPFVQALKARMTSFHRFFFTANQVKIYTNQEKTRTFIGLEVTSGHAQFLDLVSEVDRVMEEFNLTTFYQDPSFHLSLAWCVGDARLQLEGQCLQELQAIVDGFEDAEVLLRVHTEQVRCKSGNKFFSMPLK,soluble
11,MGSDKIHHHHHHMGINKFNHEGYHDPTPHEALTNIMKKEKAEKKSAFKPLVYICSPYSGDVEGNIKKARSFCRFALDQNCIPIAPHLMFPQFMDDENPEERELAIFMDIVLMGKCSEVWVLGNTISTGMAREIEVAKKRRQTVRYFSPEHEEVESL,not soluble
12,GPGSMDYPKKNQAAPAEGQTVRLTITSRNAKAVESVTSQLLTRARDEKVTIHGPVRLPTRTLKITTRKTPCGNGTNTWDTFELKIYKRIIDLHAPTEQVKKITSFTMESGVDVSITILDR,soluble
13,MSLDYEIFNPYEGLIFDMDGTLIDTMPVHAQAWTMVGKKFGYEFDFQIMYNFGGATVRTIAGEMMKAANMPLDRIEDVLAAKRELSYQLIPTQSKLLPTFEIVKSFHQKKPIALGSGSHRKIIDMLMDKLAIAPYFNAIVSADDVKEHKPHPETFLRCAELIQANPSRCIVFEDADLGVQAGLSAGMDVFDVRTREIISPREGHHHHHH,soluble
14,MASQQQTVREWSGINTFAPATQTKLLELLGNLKQEDVNSLTILVMGKGGVGKSSTVNSIIGERVVSISPFQSEGPRPVMVSRSRAGFTLNIIDTPGLIEGGYINDMALNIIKSFLLDKTIDVLLYVDRLDAYRVDNLDKLVAKAITDSFGKGIWNKAIVALTHAQFSPPDGLPYDEFFSKRSEALLQVVRSGASLKKDAQASDIPVVLIENSGRCNKNDSDEKVLPNGIAWIPHLVQTITEVALNKSESIFVDKNLIDKLAAADHHHHHH,soluble
15,SLQKEANKTYHSSLKDGKLILLLDLDNTLLQATSFAKFNMELPLENFVDDNGEAELYKFYLPQYNFFYYLKFRPYVRQFLQILSLYYELAIYTNATREYADVVIAILDPDRTIFSDRIVARCSSTDRDENKYFSRIYPNVDPKYVIAFDDRKDVWIDIPQSHILKAEHYNFFELSKYDIIS,not soluble
16,MGSDKIHHHHHHMTIYTLSHGSLKLDVSDQGGVIEGFWRDTTPLLRPGKKSGVATDASCFPLVPFANRVSGNRFVWQGREYQLQPNVEWDAHYLHGDGWLGEWQCVSHSDDSLCLVYEHRSGVYHYRVSQAFHLTADTLTVTLSVTNQGAETLPFGTGWHPYFPLSPQTRIQAQASGYWLEREQWLAGEFCEQLPQELDFNQPAPLPRQWVNNGFAGWNGQARIEQPQEGYAIIMETTPPAPCYFIFVSDPAFDKGYAFDFFCLEPMSHAPDDHHRPEGGDLIALAPGESTTSEMSLRVEWL,not soluble
17,MGSDKIHHHHHHMFNEDTKFASPYEINVLNELTGKNFQEDDLILLEKLSGMDYRKRVYVSEDQIGTLEFDLLDLTWKFIPSPLYYMIEDPKISLKYTKKRLKGKYIKEELLENPEELNEALKDNFEYIGVKIGDFLGVGVRKEDRVKVKDLSRKKELDFQKIADYLEYNKEYLDEMVENSIEILQDAVEKYKRKGYAINASFSGGKDSAVCTLISKEVIPDLDVVFIDTGLEYPETLNYVKDFVDKYDINLDTVDGDNFWDNLEKEGIPTKDNRWCNSACKLMPLKRYLKKKYGNKKVLTIDGSRKYESFTRANLDYERRSGFIDFQTNVFPILDWNSIDIWSYIYSKDIPYNPMYDKGFERIGCYLCPSALNSEFLRVKELHPDYFERWVKYLKKYFPESEVLRGFWRWDELPPKMVELEENMGVDIDKKKRLKRITQL,not soluble
18,MGSDKIHHHHHHMTKKILFCATVDYHFKAFHLPYFKWFKQMGWEVHVAANGQTKLPYVDEKFSIPIRRSPFDPQNLAVYRQLKKVIDTYEYDIVHCHTPVGGVLARLAARQARRHGTKVLYTAHGFHFCKGAPMKNWLLYYPVEKWLSAYTDCLITINEEDYIRAKGLQRPGGRTQKIHGIGVNTERFRPVSPIEQQRLREKHGFREDDFILVYPAELNLNKNQKQLIEAAALLKEKIPSLRLVFAGEGAMEHTYQTLAEKLGASAHVCFYGFCSDIHELIQLADVSVASSIREGLGMNVLEGMAAEQPAIATDNRGHREIIRDGENGFLIKIGDSAAFARRIEQLYHKPELCRKLGQEGRKTALRFSEARTVEEMADIYSAYMDMDTKEKSV,not soluble
19,MNSIVNGLYTFMSTTVVPAVTEQAANLVGGASALAEGATQALTQISQTALEWGSGSEDATASSEVFSWEQQGAAAASSDLQEDKKETTEDVHQEAIGASSPNTSIEWEVIHENPDETGPIRHNQFEMVQNNYEWMKNSK,soluble
20,MGSDKIHHHHHHMNEDYQKTIEFHGHECPGVTIGYRVSKYVLDHYERSEDEQLVAIVENNSCSIDGIQQMLGCTFGKGNLKFKDNGKHVYTFYSRGNDKALRIYLKYNLAEKVGNFNKKFNEGTLTAEDEKQMFERRKEAIKHLMEAPEEELFDVQWVEIEEPKKARLYPSLTCENCGETFMEIKGRTIDGKIVCKECFQKLVH,not soluble
21,MSLSRGRLKIAVPRLQRVANFDDLDPLVAEPDIDLQWIQPGSPIPADVDVVVLPGSKATRTELDLMRREGWDIDIHAHVRRGGRVVGLCAGFQMLGKVVRDPQGIEGPAGETAGLGLLDIETEISGDKRLIEIDAVDRISGCRVVGYEMHMGRTTGAGLARPWLRLEEGGSERAEGAVSADGRVSGGYLHGIFGGDAFRSAWLAQIGAASSGLDFERRVEETLDALADHCESNLDLDALLALAREGHHHHHH,soluble
22,MTVFANRLLGPKGWLLNARVTIDGLFIASVEPDSAPLPGDVRVDTLLPAPGNLHSHSFQRAMAGMTEYRSRGRESFWTWRELMYRFLDRLTPEHVAAIAAQTFVEMQKAGYAAVGEFHYLHHRPGGGHYDDRAEMSARIVQAAAETGIGLTLLPVLYTHGGADGRALAGGQLRFGNDLDAYCTLVEGARAHTRTLAADARVGIAPHSLRAVSATDLAEVAARHPDGPVHIHIAEQTREVEEIEAAYGARPVDWLLNNAAVGPRWCLIHATHMSDAETRAMASTGAVAGLCPITEANLGDGIFNGVPYLEAGGAFGVGSDSNVLISLTEELRLLEYSQRLRDRERNVLAGAEGSTGAALYLGALRGGARALDRRAGEIAPGALADLVAIDSNAPALCALEPEQLLDGLIFAAGERVVSDLWSAGRHQVRAGRHVAEESIARRYGAALRDLLARV,not soluble
